Results as given in patent US20200317768A1 (published 2020).

T1: cynomolgus monkey FcγRIIIaS extracellular domain, His-tagged (cynomolgus monkey, UniProt Q8SPW2 21-206 at identity 1.00))
T1 construct: also called cyno FcγRIIIaS; cynoFcγRIIIaS
T1 chain: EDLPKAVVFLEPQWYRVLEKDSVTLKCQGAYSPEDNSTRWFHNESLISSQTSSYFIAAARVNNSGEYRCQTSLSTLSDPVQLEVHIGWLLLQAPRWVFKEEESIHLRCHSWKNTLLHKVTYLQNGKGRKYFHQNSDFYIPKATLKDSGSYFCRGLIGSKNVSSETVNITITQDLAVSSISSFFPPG

T2: cynomolgus monkey FcγRIIa1 extracellular domain, His-tagged (cynomolgus monkey)
T2 construct: also called cyno FcγRIIa1; cynoFcgRIIa1
T2 chain: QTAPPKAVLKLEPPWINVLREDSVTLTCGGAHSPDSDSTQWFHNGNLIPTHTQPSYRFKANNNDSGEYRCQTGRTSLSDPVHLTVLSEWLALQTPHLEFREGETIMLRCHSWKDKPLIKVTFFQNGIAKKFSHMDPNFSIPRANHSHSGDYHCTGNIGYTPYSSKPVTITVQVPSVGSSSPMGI

T3: cynomolgus monkey FcγRIIa3 extracellular domain, His-tagged (cynomolgus monkey)
T3 construct: also called cyno FcγRIIa3; cynoFcgRIIa3
T3 chain: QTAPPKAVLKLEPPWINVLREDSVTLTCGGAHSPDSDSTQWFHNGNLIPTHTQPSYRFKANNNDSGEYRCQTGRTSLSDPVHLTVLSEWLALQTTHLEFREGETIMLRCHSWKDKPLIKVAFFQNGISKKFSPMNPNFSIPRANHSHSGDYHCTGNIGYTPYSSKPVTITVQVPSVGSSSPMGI

T4: cynomolgus monkey FcγRIIb extracellular domain, His-tagged (cynomolgus monkey)
T4 construct: also called cyno FcγRIIb; cynoFcγRIIb
T4 chain: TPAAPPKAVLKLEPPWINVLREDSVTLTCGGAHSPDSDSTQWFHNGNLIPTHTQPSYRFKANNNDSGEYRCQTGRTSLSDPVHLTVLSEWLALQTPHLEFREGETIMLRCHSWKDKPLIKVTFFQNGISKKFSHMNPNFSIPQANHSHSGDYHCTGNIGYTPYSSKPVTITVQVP

T5: human FcγRIIb extracellular domain, His-tagged (human, UniProt P31994 43-217)
T5 construct: also called FcgRIIb (human)
T5 sequence: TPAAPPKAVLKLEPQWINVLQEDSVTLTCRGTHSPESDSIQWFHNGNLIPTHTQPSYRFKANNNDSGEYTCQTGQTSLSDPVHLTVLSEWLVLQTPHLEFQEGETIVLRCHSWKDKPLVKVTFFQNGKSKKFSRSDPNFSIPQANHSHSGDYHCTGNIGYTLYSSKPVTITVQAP

T6: cynomolgus monkey FcγRIIa2 extracellular domain, His-tagged (cynomolgus monkey)
T6 construct: also called cyno FcγRIIa2; cynoFcgRIIa2
T6 chain: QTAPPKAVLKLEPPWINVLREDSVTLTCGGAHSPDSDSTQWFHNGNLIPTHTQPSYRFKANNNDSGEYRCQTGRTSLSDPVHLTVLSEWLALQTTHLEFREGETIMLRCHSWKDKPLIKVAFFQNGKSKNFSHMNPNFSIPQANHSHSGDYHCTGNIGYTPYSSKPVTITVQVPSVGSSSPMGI

T7: human FcγRIIaH extracellular domain, His-tagged (human, UniProt P12318 34-217)
T7 construct: also called human FcγRIIa (type H); FcgRIIaH
T7 sequence: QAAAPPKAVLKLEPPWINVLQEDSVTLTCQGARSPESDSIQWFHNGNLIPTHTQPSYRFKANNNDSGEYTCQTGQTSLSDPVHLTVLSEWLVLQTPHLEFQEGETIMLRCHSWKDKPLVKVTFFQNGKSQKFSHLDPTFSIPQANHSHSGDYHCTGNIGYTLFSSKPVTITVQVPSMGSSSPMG


Tests used:
Test in all cases: SPR, antibody captured, FcgR analyte
[1] = target: T1, cynomolgus monkey FcγRIIIaS …
[2] = target: T8, human FcγRIIIaV extracellular domain, His-tagged (human, UniProt P08637 17-208)
T8 construct: also called FcgRIIIaV

[3] = target: T2, cynomolgus monkey FcγRIIa1 …
[4] = target: T3, cynomolgus monkey FcγRIIa3 …
[5] = target: T4, cynomolgus monkey FcγRIIb extracellular …
[6] = target: T5, human FcγRIIb extracellular domain, …
[7] = target: T6, cynomolgus monkey FcγRIIa2 …
[8] = target: T7, human FcγRIIaH extracellular domain, …

T8 sequence (P08637 17-208 F176V): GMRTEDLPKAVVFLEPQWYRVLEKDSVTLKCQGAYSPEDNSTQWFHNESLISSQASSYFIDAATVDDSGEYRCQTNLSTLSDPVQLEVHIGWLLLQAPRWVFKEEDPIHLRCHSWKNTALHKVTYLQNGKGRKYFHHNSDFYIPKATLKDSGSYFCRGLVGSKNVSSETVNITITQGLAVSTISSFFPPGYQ

Row | Binder | Kd [1] [nM] | Kd [2] [nM] | Kd [3] [nM] | Kd [4] [nM] | Kd [5] [nM] | Kd [6] [nM] | Kd [7] [nM] | Kd [8] [nM]
1 | M103205H795-MY010/M103202L889-SK1 (antibody, human IgG1, kappa, Substitution put into M103205H795-SG1) heavy: not shown light: DIVMTQSPATLSLSPGERATLSCTSSQSVYHANWLSWFQQKPGQPPKLLIYWASTLAYGVPSRFSGSGSGTDFTLTISSLQPEDAATYYCAGGYGGGRYAFGQGTKVEIKRTVAAPSVFIFPPSDEQLKSGTASVVCLLNNFYPREAKVQWKVDNALQSGNSQESVTEQDSKDSTYSLSSTLTLSKADYEKHKVYACEVTHQGLSSPVTKSFNRGEC | 220 | 220 | 3900 | 18000 | 2000 | 9100 | 5000 | 1200
2 | M103205H795-MY043/M103202L889-SK1 (antibody, human IgG1, kappa, Substitution put into M103205H795-SG1) heavy: not shown light: DIVMTQSPATLSLSPGERATLSCTSSQSVYHANWLSWFQQKPGQPPKLLIYWASTLAYGVPSRFSGSGSGTDFTLTISSLQPEDAATYYCAGGYGGGRYAFGQGTKVEIKRTVAAPSVFIFPPSDEQLKSGTASVVCLLNNFYPREAKVQWKVDNALQSGNSQESVTEQDSKDSTYSLSSTLTLSKADYEKHKVYACEVTHQGLSSPVTKSFNRGEC | 840 | 120 | 5800 | 18000 | 4400 | 3000 | 61000 | 2900
3 | M103205H795-MY037/M103202L889-SK1 (antibody, human IgG1, kappa, Substitution put into M103205H795-SG1) heavy: not shown light: DIVMTQSPATLSLSPGERATLSCTSSQSVYHANWLSWFQQKPGQPPKLLIYWASTLAYGVPSRFSGSGSGTDFTLTISSLQPEDAATYYCAGGYGGGRYAFGQGTKVEIKRTVAAPSVFIFPPSDEQLKSGTASVVCLLNNFYPREAKVQWKVDNALQSGNSQESVTEQDSKDSTYSLSSTLTLSKADYEKHKVYACEVTHQGLSSPVTKSFNRGEC | 200 | 370 | 3800 | 9600 | 2400 | 2600 | 4500 | 1100
4 | M103205H795-MY048/M103202L889-SK1 (P271D) (antibody, human IgG1, kappa, Here the P271D molecule is meant; Put into M103205H795-SG1) heavy: not shown light: DIVMTQSPATLSLSPGERATLSCTSSQSVYHANWLSWFQQKPGQPPKLLIYWASTLAYGVPSRFSGSGSGTDFTLTISSLQPEDAATYYCAGGYGGGRYAFGQGTKVEIKRTVAAPSVFIFPPSDEQLKSGTASVVCLLNNFYPREAKVQWKVDNALQSGNSQESVTEQDSKDSTYSLSSTLTLSKADYEKHKVYACEVTHQGLSSPVTKSFNRGEC | 370 | 610 | 6600 | 4400 | 3500 | 3000 | 11000 | 1800
5 | M103205H795-MY044/M103202L889-SK1 (antibody, human IgG1, kappa, Substitution put into M103205H795-SG1) heavy: not shown light: DIVMTQSPATLSLSPGERATLSCTSSQSVYHANWLSWFQQKPGQPPKLLIYWASTLAYGVPSRFSGSGSGTDFTLTISSLQPEDAATYYCAGGYGGGRYAFGQGTKVEIKRTVAAPSVFIFPPSDEQLKSGTASVVCLLNNFYPREAKVQWKVDNALQSGNSQESVTEQDSKDSTYSLSSTLTLSKADYEKHKVYACEVTHQGLSSPVTKSFNRGEC | 470 | 900 | 3200 | 52000 | 1600 | 3300 | 3500 | 1200
6 | M103205H795-MY063/M103202L889-SK1 (antibody, human IgG1, kappa, Substitution put into M103205H795-SG1) heavy: not shown light: DIVMTQSPATLSLSPGERATLSCTSSQSVYHANWLSWFQQKPGQPPKLLIYWASTLAYGVPSRFSGSGSGTDFTLTISSLQPEDAATYYCAGGYGGGRYAFGQGTKVEIKRTVAAPSVFIFPPSDEQLKSGTASVVCLLNNFYPREAKVQWKVDNALQSGNSQESVTEQDSKDSTYSLSSTLTLSKADYEKHKVYACEVTHQGLSSPVTKSFNRGEC | 67 | 160 | 1400 | 2000 | 340 | 660 | 1500 | 270
7 | M103205H795-MY014/M103202L889-SK1 (antibody, human IgG1, kappa, Substitution put into M103205H795-SG1) heavy: not shown light: DIVMTQSPATLSLSPGERATLSCTSSQSVYHANWLSWFQQKPGQPPKLLIYWASTLAYGVPSRFSGSGSGTDFTLTISSLQPEDAATYYCAGGYGGGRYAFGQGTKVEIKRTVAAPSVFIFPPSDEQLKSGTASVVCLLNNFYPREAKVQWKVDNALQSGNSQESVTEQDSKDSTYSLSSTLTLSKADYEKHKVYACEVTHQGLSSPVTKSFNRGEC | 400 | 690 | 2500 | 12000 | 1500 | 4800 | 2500 | 520
8 | M103205H795-MY038/M103202L889-SK1 (antibody, human IgG1, kappa, Substitution put into M103205H795-SG1) heavy: not shown light: DIVMTQSPATLSLSPGERATLSCTSSQSVYHANWLSWFQQKPGQPPKLLIYWASTLAYGVPSRFSGSGSGTDFTLTISSLQPEDAATYYCAGGYGGGRYAFGQGTKVEIKRTVAAPSVFIFPPSDEQLKSGTASVVCLLNNFYPREAKVQWKVDNALQSGNSQESVTEQDSKDSTYSLSSTLTLSKADYEKHKVYACEVTHQGLSSPVTKSFNRGEC | 310 | 650 | 3900 | 11000 | 1900 | 2600 | 4500 | 1200
9 | M103205H795-MY045/M103202L889-SK1 (antibody, human IgG1, kappa, Substitution put into M103205H795-SG1) heavy: not shown light: DIVMTQSPATLSLSPGERATLSCTSSQSVYHANWLSWFQQKPGQPPKLLIYWASTLAYGVPSRFSGSGSGTDFTLTISSLQPEDAATYYCAGGYGGGRYAFGQGTKVEIKRTVAAPSVFIFPPSDEQLKSGTASVVCLLNNFYPREAKVQWKVDNALQSGNSQESVTEQDSKDSTYSLSSTLTLSKADYEKHKVYACEVTHQGLSSPVTKSFNRGEC | 140 | 240 | 5700 | 6800 | 2200 | 2900 | 4000 | 1600
10 | M103205H795-MY013/M103202L889-SK1 (antibody, human IgG1, kappa, Substitution put into M103205H795-SG1) heavy: not shown light: DIVMTQSPATLSLSPGERATLSCTSSQSVYHANWLSWFQQKPGQPPKLLIYWASTLAYGVPSRFSGSGSGTDFTLTISSLQPEDAATYYCAGGYGGGRYAFGQGTKVEIKRTVAAPSVFIFPPSDEQLKSGTASVVCLLNNFYPREAKVQWKVDNALQSGNSQESVTEQDSKDSTYSLSSTLTLSKADYEKHKVYACEVTHQGLSSPVTKSFNRGEC | 330 | 410 | 4500 | 52000 | 2000 | 3700 | 4700 | 2600
11 | M103205H795-MY041/M103202L889-SK1 (antibody, human IgG1, kappa, Substitution put into M103205H795-SG1) heavy: not shown light: DIVMTQSPATLSLSPGERATLSCTSSQSVYHANWLSWFQQKPGQPPKLLIYWASTLAYGVPSRFSGSGSGTDFTLTISSLQPEDAATYYCAGGYGGGRYAFGQGTKVEIKRTVAAPSVFIFPPSDEQLKSGTASVVCLLNNFYPREAKVQWKVDNALQSGNSQESVTEQDSKDSTYSLSSTLTLSKADYEKHKVYACEVTHQGLSSPVTKSFNRGEC | 260 | 480 | 4000 | 7400 | 3500 | 3100 | 4100 | 1800
12 | M103205H795-MY016/M103202L889-SK1 (antibody, human IgG1, kappa, Substitution put into M103205H795-SG1) heavy: not shown light: DIVMTQSPATLSLSPGERATLSCTSSQSVYHANWLSWFQQKPGQPPKLLIYWASTLAYGVPSRFSGSGSGTDFTLTISSLQPEDAATYYCAGGYGGGRYAFGQGTKVEIKRTVAAPSVFIFPPSDEQLKSGTASVVCLLNNFYPREAKVQWKVDNALQSGNSQESVTEQDSKDSTYSLSSTLTLSKADYEKHKVYACEVTHQGLSSPVTKSFNRGEC | 230 | 370 | 2900 | 3200 | 1700 | 2900 | 3400 | 850
